The text below walks through data of article PMC4520770.

Assay in all cases: fluorescence polarisation
The target of assay [1] is BL6-22_Y4eK.
In assay [2] the target is Bim_A2eT (UniProt O43521).
Assay [3] deals with Bim_A2eT_E2gG (UniProt O43521).
Assay [4] addresses KL6-7_D3fA.
Assay [5] deals with KL6-7_Y4eK.
Assay [6] addresses Bim_R3bS (UniProt O43521).
Assay [7] has as its target Bim BH3 peptide (23 residues, fluoresceinated) (UniProt O43521).

Chain of Bfl-1 (human), c-myc-tagged (Q16548 whole entry): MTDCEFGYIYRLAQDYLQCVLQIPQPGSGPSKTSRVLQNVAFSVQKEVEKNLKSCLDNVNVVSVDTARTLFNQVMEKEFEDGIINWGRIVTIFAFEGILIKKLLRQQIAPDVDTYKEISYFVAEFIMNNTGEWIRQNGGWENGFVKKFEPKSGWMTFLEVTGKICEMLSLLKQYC
Chain of Bcl-w (human), c-myc-tagged (Q92843 whole entry): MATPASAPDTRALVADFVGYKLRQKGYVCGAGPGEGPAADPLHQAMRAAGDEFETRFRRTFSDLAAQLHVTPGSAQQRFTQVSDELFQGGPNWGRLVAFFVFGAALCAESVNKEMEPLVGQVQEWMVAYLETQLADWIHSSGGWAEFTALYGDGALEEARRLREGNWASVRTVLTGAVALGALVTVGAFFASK

With “BHRF1 (Epstein-Barr virus Bcl-2 homolog), c-myc-tagged (from UniProt P03182 1-191) (natural protein)”, the Kd in assay [1] was 30 nM; in assay [2] it was 64 nM; in assay [3], above 1000 nM; in assay [4], above 1000 nM; in assay [5], above 1000 nM.
Consider “Bcl-2 (human), c-myc-tagged (from UniProt P10415 1-239) (natural protein)”, for which the Kd was 44 nM in assay [2], 150 nM in assay [3] and 7.2 nM in assay [6].
The like results for “Bcl-w (human), c-myc-tagged (from UniProt Q92843 1-193) (natural protein)” were, in that order, 40 nM, 98 nM and 18 nM.
“Bcl-xL (human), c-myc-tagged (from UniProt Q07817-1 1-233) (natural protein)”: the equilibrium dissociation constant (Kd) stood at 18 nM in assay [2], 42 nM in assay [3] and 3.8 nM in assay [6].
For “Bfl-1 (human), c-myc-tagged (from UniProt Q16548 1-175) (natural protein)”, the Kd was 32 nM in assay [2], 260 nM in assay [3] and 5.2 nM in assay [6].
Taken in the same sequence, the figures for “KSBcl-2 (Kaposi's sarcoma-associated herpesvirus Bcl-2 homolog), c-myc-tagged (from UniProt P90504 1-175) (natural protein)” were 1.8 nM, 1.1 nM and 1.5 nM.
In the case of “M11 (murine gamma herpesvirus γHV68 Bcl-2 homolog), BAP- and His6-tagged (from UniProt P89884 1-171) (natural protein)”, the dissociation constant (Kd) in assay [2] came to 78 nM; in assay [3] it was 15 nM.
As for “Mcl-1 (human), c-myc-tagged (from UniProt Q07820 1-350) (natural protein)”, the dissociation constant (Kd) in assay [7] was below 1 nM; in assay [2], 0.62 nM; in assay [3], 1.6 nM; in assay [6] it was below 1 nM; in assay [4] it was above 5000 nM; in assay [5], 7800 nM.
